± gives the standard error. For part of these data: Fewer inactive variants are shown than the library holds.
B1: glmS ribozyme (parent)
chain: AUAAAAGCGCCAGAACUACAGAAAUGUAGUUGACGAGGAGGAGGUUUAUCGAAUUUUCGGCGGAUGCCUCCAAA

What was measured:
Settings in all cases: with glucosamine-6-phosphate
glucosamine-6-phosphate [1] = variants of: B1; assay: kcat; higher = faster cleavage; RNA array
Outline: (§1)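 On sequenced MiSeq chips, barcoded ribozyme variants were made in situ by E. coli RNA polymerase and followed at 37 °C through a hybridised Cy3 probe. Glucosamine-6-phosphate was flowed in at 40 μM to 10 mM in HEPES/KCl/Mg(OAc)2 buffer. Exponential fits to normalised per-tile medians gave kobs, and weighted Michaelis–Menten fits gave kcat and KM.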

glucosamine-6-phosphate [2] = variants of: B1; assay: KM; higher = weaker cofactor use; RNA array
Outline: as §1

glucosamine-6-phosphate [3] = variants of: B1; assay: self-cleavage kobs at 40 uM GlcN6P; higher = faster cleavage; RNA array
Outline: as §1

glucosamine-6-phosphate [4] = variants of: B1; assay: self-cleavage kobs at 160 uM GlcN6P; higher = faster cleavage; RNA array
Outline: as §1

glucosamine-6-phosphate [5] = variants of: B1; assay: self-cleavage kobs at 640 uM GlcN6P; higher = faster cleavage; RNA array
Outline: as §1

glucosamine-6-phosphate [6] = variants of: B1; assay: self-cleavage kobs at 2500 uM GlcN6P; higher = faster cleavage; RNA array
Outline: as §1

glucosamine-6-phosphate [7] = variants of: B1; assay: self-cleavage kobs at 10000 uM GlcN6P; higher = faster cleavage; RNA array
Outline: as §1

Variant | kcat (glucosamine-6-phosphate [1]) [s⁻¹] | KM (glucosamine-6-phosphate [2]) [µM] | self-cleavage kobs at 40 uM GlcN6P (glucosamine-6-phosphate [3]) [s⁻¹] | self-cleavage kobs at 160 uM GlcN6P (glucosamine-6-phosphate [4]) [s⁻¹] | self-cleavage kobs at 640 uM GlcN6P (glucosamine-6-phosphate [5]) [s⁻¹] | self-cleavage kobs at 2500 uM GlcN6P (glucosamine-6-phosphate [6]) [s⁻¹] | self-cleavage kobs at 10000 uM GlcN6P (glucosamine-6-phosphate [7]) [s⁻¹]
A14G U45A U49G | 0.00282 ± 0.001 | 2040 ± 970 | 8.34e-05 ± 1.7e-05 | 0.000143 ± 3.9e-05 | 0.000745 ± 0.00011 | 0.00136 ± 0.00063 | 0.00233 ± 0.00051
U30C U54G | 0.000209 ± 1.3e-05 | 411 ± 120 | – | 9.02e-05 ± 4.2e-05 | 0.000118 ± 2.8e-05 | 0.00018 ± 3.5e-05 | 0.000203 ± 2.5e-05
U30A A39U | 0.00467 ± 0.0022 | – | 0.000191 ± 5.4e-05 | 0.000401 ± 8.1e-05 | 0.00188 ± 0.00036 | 0.0022 ± 0.00046 | 0.00745 ± 0.0016
U49C C70G | 1.42e-05 ± 2.5e-06 | – | – | – | – | – | < 1e-05
G38C A52C | < 1e-05 | – | < 1e-05 | < 1e-05 | – | – | < 1e-05
A14G U30C | 0.00152 ± 0.00022 | 1880 ± 500 | 3.48e-05 ± 8e-06 | 9.58e-05 ± 1.9e-05 | 0.000552 ± 0.00011 | 0.000958 ± 0.00012 | 0.00122 ± 0.00013
A12C A64G | 0.000378 ± 6.7e-05 | 1600 ± 500 | – | – | 0.000111 ± 1.5e-05 | 0.000209 ± 3.2e-05 | 0.000415 ± 0.0001
A52C U69A | 1.76e-05 ± 5.9e-06 | – | – | – | – | – | –
G43U U56C | < 1e-05 | – | – | < 1e-05 | – | < 1e-05 | –
G40A C68U | 5.12e-05 ± 6.5e-06 | – | < 1e-05 | – | – | 4.58e-05 ± 1e-05 | 4.59e-05 ± 5.4e-06
C16U G59U | 4.21e-05 ± 7.7e-06 | – | – | – | – | 4.99e-05 ± 1.2e-05 | 3.73e-05 ± 7.2e-06
G60C C70G | 2.59e-05 ± 9.4e-06 | – | < 1e-05 | – | – | – | < 1e-05
A15G G40C | 0.00522 ± 0.0011 | 1800 ± 590 | 0.000151 ± 1.6e-05 | 0.000354 ± 6.3e-05 | 0.00122 ± 0.00017 | 0.0027 ± 0.00028 | 0.00506 ± 0.00049
A6C U65G | 2.87e-05 ± 1.5e-06 | 342 ± 150 | – | – | – | – | 2.71e-05 ± 1.1e-05
G13C A42G | 0.00017 ± 1.8e-05 | 4030 ± 920 | < 1e-05 | – | 3.16e-05 ± 1.6e-05 | 6.19e-05 ± 1.3e-05 | 0.000123 ± 1.8e-05
C16A U69G | 7.88e-05 ± 1.9e-05 | – | – | – | 7.48e-05 ± 1.5e-05 | 6.89e-05 ± 1.5e-05 | –
U31C C61A | 3.08e-05 ± 1.2e-05 | – | – | – | – | – | < 1e-05

Source: the supplement of paper PMC7125110
